{"source": "paper PMC11210196", "test_system": "CsrA-H6 (Escherichia coli (K-12 MG1655?))", "test": "EMSA", "settings": "apparent Kd, EMSA: 0.08-0.2 nM RNA, 10 mM MgCl2, 100 mM KCl, 32.5 ng SUPERase In, 37 C 30 min, footprint: 2 nM RNA, 10 mM Tris-HCl pH 7.5, 10 mM MgCl2, 100 mM KCl, 40 ng …"}
{"substance": "gadE 5' leader (EMSA)", "values": [{"measurement": "Kd", "value": 138, "unit": "nM"}]}
{"substance": "evgA 5' leader (EMSA)", "values": [{"measurement": "Kd", "setting": "two shifted species", "value": 7, "unit": "nM"}]}
{"substance": "ydeO 5' leader (EMSA)", "values": [{"measurement": "Kd", "setting": "binds both conformers", "value": 84, "unit": "nM"}]}
{"substance": "gadA 5' leader (EMSA)", "values": [{"measurement": "Kd", "setting": "two shifts", "value": 73, "unit": "nM"}]}
{"substance": "gadB 5' leader (EMSA)", "values": [{"measurement": "Kd", "setting": "two shifts", "value": 49, "unit": "nM"}]}
